Laboratory results: PMC8016751 (Nature, 2020)
Read-outs that look alike come from different tables or passages of the source.

T1: Rec114-Mei4 (Saccharomyces cerevisiae, UniProt P32841;P29467 1-428;1-408)
T1 sequence 1: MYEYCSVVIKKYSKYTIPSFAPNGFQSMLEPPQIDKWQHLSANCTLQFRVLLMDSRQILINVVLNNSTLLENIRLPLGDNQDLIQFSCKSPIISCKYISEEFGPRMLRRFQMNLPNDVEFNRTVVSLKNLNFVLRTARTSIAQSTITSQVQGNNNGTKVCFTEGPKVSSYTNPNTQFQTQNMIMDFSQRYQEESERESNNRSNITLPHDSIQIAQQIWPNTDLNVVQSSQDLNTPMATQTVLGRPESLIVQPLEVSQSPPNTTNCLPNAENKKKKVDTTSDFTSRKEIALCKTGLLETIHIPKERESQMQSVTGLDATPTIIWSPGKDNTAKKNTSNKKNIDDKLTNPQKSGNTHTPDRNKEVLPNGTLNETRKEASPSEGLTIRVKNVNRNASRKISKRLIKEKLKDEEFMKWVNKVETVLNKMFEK
T1 sequence 2: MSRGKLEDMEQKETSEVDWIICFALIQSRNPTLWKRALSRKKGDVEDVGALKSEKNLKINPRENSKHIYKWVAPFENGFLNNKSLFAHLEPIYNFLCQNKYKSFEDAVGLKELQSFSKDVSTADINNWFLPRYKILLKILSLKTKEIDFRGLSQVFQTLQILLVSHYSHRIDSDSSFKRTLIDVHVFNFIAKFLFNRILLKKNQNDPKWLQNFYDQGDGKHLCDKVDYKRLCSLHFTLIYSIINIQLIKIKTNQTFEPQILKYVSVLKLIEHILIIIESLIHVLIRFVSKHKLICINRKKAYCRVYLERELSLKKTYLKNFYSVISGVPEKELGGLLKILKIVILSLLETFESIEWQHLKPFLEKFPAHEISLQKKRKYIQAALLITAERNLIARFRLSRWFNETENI

T2: Mer2 (Saccharomyces cerevisiae, UniProt P21651 1-314)
T2 sequence: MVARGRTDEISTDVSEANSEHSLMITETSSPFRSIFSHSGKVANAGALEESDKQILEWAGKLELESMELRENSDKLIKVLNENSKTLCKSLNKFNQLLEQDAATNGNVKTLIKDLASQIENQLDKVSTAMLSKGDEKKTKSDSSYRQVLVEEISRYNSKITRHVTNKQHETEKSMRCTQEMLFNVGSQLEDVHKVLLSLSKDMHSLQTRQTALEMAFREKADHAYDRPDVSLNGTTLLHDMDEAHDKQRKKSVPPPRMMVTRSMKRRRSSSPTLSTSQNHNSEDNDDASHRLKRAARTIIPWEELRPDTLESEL

T3: MBP-tagged Mei4 (S. cerevisiae, UniProt P29467 1-408)
T3 sequence: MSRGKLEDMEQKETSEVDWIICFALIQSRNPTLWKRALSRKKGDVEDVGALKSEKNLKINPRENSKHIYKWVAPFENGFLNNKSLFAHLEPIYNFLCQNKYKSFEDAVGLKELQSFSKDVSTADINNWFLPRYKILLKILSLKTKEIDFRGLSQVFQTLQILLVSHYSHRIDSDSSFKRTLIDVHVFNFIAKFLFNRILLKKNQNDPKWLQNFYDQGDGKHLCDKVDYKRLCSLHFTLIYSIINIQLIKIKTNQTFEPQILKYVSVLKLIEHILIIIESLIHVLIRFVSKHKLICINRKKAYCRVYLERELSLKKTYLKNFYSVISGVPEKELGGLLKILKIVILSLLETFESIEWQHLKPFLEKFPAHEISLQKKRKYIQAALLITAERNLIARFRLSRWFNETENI

T4: Mei4 (untagged, from ^MBP-TEVMei4) (S. cerevisiae, UniProt P29467 1-408)
T4 sequence: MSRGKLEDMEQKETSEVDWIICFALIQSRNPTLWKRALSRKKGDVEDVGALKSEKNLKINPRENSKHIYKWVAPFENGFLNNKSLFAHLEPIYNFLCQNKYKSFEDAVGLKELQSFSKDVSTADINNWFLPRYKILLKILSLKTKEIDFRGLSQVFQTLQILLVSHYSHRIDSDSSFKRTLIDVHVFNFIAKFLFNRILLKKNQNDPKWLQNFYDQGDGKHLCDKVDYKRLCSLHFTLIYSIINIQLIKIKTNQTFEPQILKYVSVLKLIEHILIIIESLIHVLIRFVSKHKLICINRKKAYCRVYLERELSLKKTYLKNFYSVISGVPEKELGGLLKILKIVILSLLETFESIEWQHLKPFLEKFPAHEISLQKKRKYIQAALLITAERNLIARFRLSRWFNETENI


Legend:
[1] = biological target: Mer2 coiled-coil single-chain dimer (S. cerevisiae) (UniProt P21651); experiment: SEC-MALS
[2] = biological target: T1, Rec114-Mei4; experiment: EMSA
[3] = biological target: T2, Mer2; experiment: EMSA
[4] = biological target: the molecule itself; experiment: SEC-MALS
[5] = biological target: the molecule itself; experiment: SEC-MALS; remark: listed apart in the source
[6] = biological target: T3, MBP-tagged Mei4; experiment: SEC-MALS
[7] = biological target: T4, Mei4 (untagged, from ^MBP-TEVMei4); experiment: SEC-MALS

| Molecule | apparent K (half saturation) [2] [nM] | apparent K (half saturation) [3] [nM] | further results |
| --- | --- | --- | --- |
| Mer2 coiled-coil single-chain dimer (from UniProt P21651) | – | – | stoichiometry N [1]: 2 |
| dsDNA40 (dsDNA) DNA 1: CAACGTGGGCAAAGATGTCCTAGCAATGTAATCGTCTATG DNA 2: CATAGACGATTACATTGCTAGGACATCTTTGCCCACGTTG | 35 | 64 | – |
| Mer2 (untagged, from ^SUMOMer2) (natural protein) MVARGRTDEISTDVSEANSEHSLMITETSSPFRSIFSHSGKVANAGALEESDKQILEWAGKLELESMELRENSDKLIKVLNENSKTLCKSLNKFNQLLEQDAATNGNVKTLIKDLASQIENQLDKVSTAMLSKGDEKKTKSDSSYRQVLVEEISRYNSKITRHVTNKQHETEKSMRCTQEMLFNVGSQLEDVHKVLLSLSKDMHSLQTRQTALEMAFREKADHAYDRPDVSLNGTTLLHDMDEAHDKQRKKSVPPPRMMVTRSMKRRRSSSPTLSTSQNHNSEDNDDASHRLKRAARTIIPWEELRPDTLESEL | – | – | stoichiometry N [4]: 4 |
| dsDNA80 (dsDNA) DNA 1: CTAGTATAGAGCCGGCGCGCCATGTCTAGATAGCGTTAGGTCTGCCGAATAGTACTACTCGGATCCCGAGCGAACCACGC DNA 2: GCGTGGTTCGCTCGGGATCCGAGTAGTACTATTCGGCAGACCTAACGCTATCTAGACATGGCGCGCCGGCTCTATACTAG | 6 | 19 | – |
| dsDNA20 (dsDNA) DNA 1: AAAGATGTCCTAGCAATGTA DNA 2: TACATTGCTAGGACATCTTT | ~80 | > 400 | – |
| Mer2 coiled-coil domain (residues 77-227) (domain or fragment) IKVLNENSKTLCKSLNKFNQLLEQDAATNGNVKTLIKDLASQIENQLDKVSTAMLSKGDEKKTKSDSSYRQVLVEEISRYNSKITRHVTNKQHETEKSMRCTQEMLFNVGSQLEDVHKVLLSLSKDMHSLQTRQTALEMAFREKADHAYDR | – | – | stoichiometry N [5]: 4 |
| HisFlag-tagged Rec114 (natural protein) MYEYCSVVIKKYSKYTIPSFAPNGFQSMLEPPQIDKWQHLSANCTLQFRVLLMDSRQILINVVLNNSTLLENIRLPLGDNQDLIQFSCKSPIISCKYISEEFGPRMLRRFQMNLPNDVEFNRTVVSLKNLNFVLRTARTSIAQSTITSQVQGNNNGTKVCFTEGPKVSSYTNPNTQFQTQNMIMDFSQRYQEESERESNNRSNITLPHDSIQIAQQIWPNTDLNVVQSSQDLNTPMATQTVLGRPESLIVQPLEVSQSPPNTTNCLPNAENKKKKVDTTSDFTSRKEIALCKTGLLETIHIPKERESQMQSVTGLDATPTIIWSPGKDNTAKKNTSNKKNIDDKLTNPQKSGNTHTPDRNKEVLPNGTLNETRKEASPSEGLTIRVKNVNRNASRKISKRLIKEKLKDEEFMKWVNKVETVLNKMFEK | – | – | stoichiometry N [6]: 2 Rec114 per Mei4 |
| Rec114 (untagged, from ^HisFlag-TEVRec114) (natural protein) MYEYCSVVIKKYSKYTIPSFAPNGFQSMLEPPQIDKWQHLSANCTLQFRVLLMDSRQILINVVLNNSTLLENIRLPLGDNQDLIQFSCKSPIISCKYISEEFGPRMLRRFQMNLPNDVEFNRTVVSLKNLNFVLRTARTSIAQSTITSQVQGNNNGTKVCFTEGPKVSSYTNPNTQFQTQNMIMDFSQRYQEESERESNNRSNITLPHDSIQIAQQIWPNTDLNVVQSSQDLNTPMATQTVLGRPESLIVQPLEVSQSPPNTTNCLPNAENKKKKVDTTSDFTSRKEIALCKTGLLETIHIPKERESQMQSVTGLDATPTIIWSPGKDNTAKKNTSNKKNIDDKLTNPQKSGNTHTPDRNKEVLPNGTLNETRKEASPSEGLTIRVKNVNRNASRKISKRLIKEKLKDEEFMKWVNKVETVLNKMFEK | – | – | stoichiometry N [7]: 2 Rec114 per Mei4 |
